According to US20260242478A1 (published 2026):
Where no end group is shown, it is not given here.

Assays:
[1] = molecular target: T1, Anti-PSMA Fab (SEQ ID NOs: 19, 20); assay: phage binding ELISA; biotinylated Fab on neutravidin plate, anti-M13 HRP detection
T1 construct: Biotinylated and captured on neutravidin coated plates in the phage ELISA; also called 006 PSMA Fab
Method: (§1) Clonal phage were harvested as crude supernatants and screened via standard ELISAs. […] Prior to the addition of clonal phage. wells were incubated with blocking buffer and PSMA antigen or blocking buffer alone. Without washing or aspirating, clonal phage supernatants were then added to the wells and incubated for a short time. Wells were then washed followed by detection of bound phage using a horse radish conjugated anti-M13 antibody.

[2] = molecular target: T1, Anti-PSMA Fab (SEQ ID NOs: 19, 20); assay: phage binding ELISA on captured Fab; competitor PSMA antigen pre-incubated in the wells
Method: as §1

[3] = molecular target: T2, Anti-PSMA Fab (SEQ ID NOs: 19, 20); assay: phage binding ELISA; PSMA Fab on plate pre-incubated with PSMA antigen as competitor, anti-M13 HRP detection;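 further: crude clonal phage supernatants added without washing to wells preincubated with PSMA in blocking buffer, compared with wells receiving blocking buffer only, then bound phage detected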
T2 construct: Biotinylated and captured on neutravidin-coated plates in the phage ELISA; also called 006 PSMA Fab
Method: as §1

[4] = molecular target: T2, Anti-PSMA Fab (SEQ ID NOs: 19, 20); assay: phage binding ELISA; biotinylated PSMA Fab on neutravidin plate, clonal phage supernatant, anti-M13 HRP detection;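 further: wells were preincubated with blocking buffer either containing PSMA antigen or without it before crude phage supernatant was added, briefly incubated, then washed prior to detection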
Method: as §1

[5] = molecular target: T3, Anti-PSMA Fab (SEQ ID NOs: 19, 20); assay: phage binding ELISA on captured anti-PSMA Fab; competitor: PSMA antigen
T3 construct: In the phage ELISA the Fab was biotinylated and captured on neutravidin coated plates; also called 006 PSMA Fab
Method: as §1

[6] = molecular target: T3, Anti-PSMA Fab (SEQ ID NOs: 19, 20); assay: phage binding ELISA; clonal phage on biotinylated anti-PSMA Fab captured on neutravidin, anti-M13 HRP detection
Method: as §1

| Binder | Anti-PSMA Fab (SEQ ID NOs: 19, 20) signal [1] | Anti-PSMA Fab signal in the presence of PSMA [2] | Anti-PSMA Fab signal in the presence of PSMA [3] | Anti-PSMA Fab (SEQ ID NOs: 19, 20) signal [4] | further results |
| --- | --- | --- | --- | --- | --- |
| GEIWCIPAWMCNTG (Clonal phage of the peptide-180 library, tested as crude phage supernatant; not shown: fused to pIII of the bacteriophage) [Phage-2200] | 1.62 | 0.0549 | – | – | – |
| EYNWCTPRWMCKGF (Clonal phage of the peptide-180 library, tested as crude phage supernatant; not shown: fused to pIII of the bacteriophage) [Phage-2201] | 1.62 | 0.0617 | – | – | – |
| IIKWCTPEWMCVGF [Phage-2249 peptide (SEQ ID NO: 2565)] | – | – | 0.0748 | 1.55 | – |
| MTPWCKPAWMCQGI (Clonal phage of the peptide-180 library, tested as crude phage supernatant; not shown: fused to pIII of the bacteriophage) [Phage-2192] | 1.63 | 0.0994 | – | – | – |
| LYKWCMPAWMCEQK (Clonal phage of the peptide-180 library, tested as crude phage supernatant; not shown: fused to pIII of the bacteriophage) [Phage-2195] | 1.62 | 0.0702 | – | – | – |
| VEKWCIPSWMCQEL (Clonal phage of the peptide-180 library, tested as crude phage supernatant; not shown: fused to pIII of the bacteriophage) [Phage-2199] | 1.62 | 0.0642 | – | – | – |
| SEKLCIPEWMCAQA (cysteine pairing not given here; also: displayed on bacteriophage as fusion to pIII) [Phage-2245 peptide (SEQ ID NO: 2561)] | – | – | 0.0686 | 1.56 | – |
| MERWCIPEWMCERT (Clonal phage of the peptide-180 library, tested as crude phage supernatant; not shown: fused to pIII of the bacteriophage) [Phage-2203] | 1.61 | 0.072 | – | – | – |
| LEKWCIPSWMCDGM (Clonal phage of the peptide-180 library, tested as crude phage supernatant; not shown: fused to pIII of the bacteriophage) [Phage-2197] | 1.62 | 0.0637 | – | – | – |
| VEKMCRPAWMCWVM [Phage-1824] | – | – | – | – | Anti-PSMA Fab signal in the presence of PSMA [5]: 0.214; Anti-PSMA Fab (SEQ ID NOs: 19, 20) signal [6]: 2.37 |
| EPKWCTPAWMCEWM [Phage-1830] | – | – | – | – | Anti-PSMA Fab signal in the presence of PSMA [5]: 0.0904; Anti-PSMA Fab (SEQ ID NOs: 19, 20) signal [6]: 2.29 |
| IVKRCEPMWMCAGF (cysteine pairing not given here; also: displayed on phage as pIII fusion, pIII sequence and linker not given here) [Phage-1821] | – | – | – | – | Anti-PSMA Fab signal in the presence of PSMA [5]: 0.264; Anti-PSMA Fab (SEQ ID NOs: 19, 20) signal [6]: 2.38 |
| VLKLCVPPWMCMAQ [Phage-1827] | – | – | – | – | Anti-PSMA Fab signal in the presence of PSMA [5]: 0.0968; Anti-PSMA Fab (SEQ ID NOs: 19, 20) signal [6]: 2.32 |
| HDKWCIPEWMCISL (Clonal phage of the peptide-180 library, tested as crude phage supernatant; not shown: fused to pIII of the bacteriophage) [Phage-2202] | 1.62 | 0.075 | – | – | – |
| GEIWCTPKWMCDGF [Phage-2246 peptide (SEQ ID NO: 2562)] | – | – | 0.0716 | 1.55 | – |
| DLKLCKPEWMCNGM (Clonal phage of the peptide-180 library, tested as crude phage supernatant; not shown: fused to pIII of the bacteriophage) [Phage-2204] | 1.61 | 0.0815 | – | – | – |
| LMNWCIPPWMCSAQ [Phage-2242 peptide (SEQ ID NO: 2558)] | – | – | 0.0907 | 1.56 | – |
| LMKWCIPQWMCQLD [Phage-2243 peptide (SEQ ID NO: 2559)] | – | – | 0.249 | 1.56 | – |

| Binder | Anti-PSMA Fab (SEQ ID NOs: 19, 20) signal [1] | Anti-PSMA Fab signal in the presence of PSMA [2] | Anti-PSMA Fab signal in the presence of PSMA [3] | Anti-PSMA Fab (SEQ ID NOs: 19, 20) signal [4] | further results |
| --- | --- | --- | --- | --- | --- |
| WENWCQPAWMCTGL [Phage-1826] | – | – | – | – | Anti-PSMA Fab signal in the presence of PSMA [5]: 0.0691; Anti-PSMA Fab (SEQ ID NOs: 19, 20) signal [6]: 2.33 |
| LVKLCIPEWMCSEG [Phage-2244 peptide (SEQ ID NO: 2560)] | – | – | 0.0711 | 1.56 | – |
| ISKLCTPPWMCEML [Phage-1825] | – | – | – | – | Anti-PSMA Fab signal in the presence of PSMA [5]: 0.0582; Anti-PSMA Fab (SEQ ID NOs: 19, 20) signal [6]: 2.33 |
| DFKWCIPTWMCEVY [Phage-2238 peptide (SEQ ID NO: 2554)] | – | – | 0.0768 | 1.56 | – |
| IDKWCIPAWMCEST [Phage-2250 peptide (SEQ ID NO: 2566)] | – | – | 0.105 | 1.55 | – |
| NIIRCTPAWMCDGF [Phage-2247 peptide (SEQ ID NO: 2563)] | – | – | 0.0619 | 1.55 | – |
| MDNWCTPEWMCLGF [Phage-1828] | – | – | – | – | Anti-PSMA Fab signal in the presence of PSMA [5]: 0.065; Anti-PSMA Fab (SEQ ID NOs: 19, 20) signal [6]: 2.3 |
| HPNWCTPPWMCLGL [Phage-2239 peptide (SEQ ID NO: 2555)] | – | – | 0.0699 | 1.56 | – |
| LENWCKPAWMCWGM [Phage-2248 peptide (SEQ ID NO: 2564)] | – | – | 0.0811 | 1.55 | – |
| WENWCTPAWMCVGF [Phage-1822] | – | – | – | – | Anti-PSMA Fab signal in the presence of PSMA [5]: 0.0932; Anti-PSMA Fab (SEQ ID NOs: 19, 20) signal [6]: 2.37 |
| DVNWCTPPWMCWGF (Clonal phage of the peptide-180 library, tested as crude phage supernatant; not shown: fused to pIII of the bacteriophage) [Phage-2198] | 1.62 | 0.0743 | – | – | – |
| LADWCRPVWMCEGF (Clonal phage of the peptide-180 library, tested as crude phage supernatant; not shown: fused to pIII of the bacteriophage) [Phage-2196] | 1.62 | 0.287 | – | – | – |
| VDRLCTPEWMCSGF (Clonal phage of the peptide-180 library, tested as crude phage supernatant; not shown: fused to pIII of the bacteriophage) [Phage-2205] | 1.61 | 0.0763 | – | – | – |
| MDKWCTPPWMCDWL [Phage-1829] | – | – | – | – | Anti-PSMA Fab signal in the presence of PSMA [5]: 0.136; Anti-PSMA Fab (SEQ ID NOs: 19, 20) signal [6]: 2.3 |
| HAMWCIPAWMCENL (Clonal phage of the peptide-180 library, tested as crude phage supernatant; not shown: fused to pIII of the bacteriophage) [Phage-2194] | 1.63 | 0.0809 | – | – | – |
| VVKWCIPTWMCENS [Phage-2241 peptide (SEQ ID NO: 2557)] | – | – | 0.0889 | 1.56 | – |
| TEIRCTPQWMCLGF [Phage-1823] | – | – | – | – | Anti-PSMA Fab signal in the presence of PSMA [5]: 0.0871; Anti-PSMA Fab (SEQ ID NOs: 19, 20) signal [6]: 2.37 |
| ESHLCIPAWMCDVQ (Clonal phage of the peptide-180 library, tested as crude phage supernatant; not shown: fused to pIII of the bacteriophage) [Phage-2193] | 1.63 | 0.0973 | – | – | – |
